From PMC4967961

Target: HuR full-length (FL-HuR, rHuR) (UniProt Q15717 1-326)
Assay: EMSA; EMSA: 20 mM Tris-HCl pH 7.8, 150 mM KCl, 2 mM MgCl2, 0.1% Triton X-100, 0.5 mM DTT, heparin 5 mg/ml, BSA 1 mg/ml, 10% glycerol, on ice 15 min; 6% native PAGE, 0

Chain of HuR full-length (FL-HuR, rHuR) (Q15717 whole entry): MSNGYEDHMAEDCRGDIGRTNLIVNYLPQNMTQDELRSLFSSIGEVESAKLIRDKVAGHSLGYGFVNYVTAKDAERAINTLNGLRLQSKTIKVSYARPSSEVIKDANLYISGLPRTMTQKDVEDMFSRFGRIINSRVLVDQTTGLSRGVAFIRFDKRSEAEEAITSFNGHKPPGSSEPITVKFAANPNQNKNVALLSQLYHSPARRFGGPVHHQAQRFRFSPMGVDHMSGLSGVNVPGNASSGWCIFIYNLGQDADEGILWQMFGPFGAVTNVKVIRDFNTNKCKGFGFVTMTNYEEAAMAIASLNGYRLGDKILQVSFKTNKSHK

AUUAUUUAUUAUUUAUUUAUUAUUUAUUUAUUUA (ssRNA) [TNF-alpha 3'UTR ARE RNA]
binding result: binds

UGGAGUGUGACAAUGGUGUUUG (ssRNA) [miR-122 (5p)]
Kd: 50 nM
